This assay has as its target Sulfolobus acidocaldarius soluble FlaF (sFlaF) (Sulfolobus acidocaldarius). As to the kind of experiment: SEC. In general terms: In gel filtration, larger molecules generally elute earlier.

One may read the stoichiometry N as a count of units in the complex or per binding partner.

In the case of “Sulfolobus acidocaldarius soluble FlaF (sFlaF) (domain or fragment)”, the stoichiometry N came out at 2.

For the origin of these results see publication PMC6952060.
